How the values were obtained:
[1] = target: T1, human VISTA expressed on HEK293A cells (human, UniProt Q9H7M9 33-311); assay: FACS on HEK-293A/hVISTA cells
T1 construct: also called HEK293A/humanVISTA; HEK293A/human VISTA
T1 sequence: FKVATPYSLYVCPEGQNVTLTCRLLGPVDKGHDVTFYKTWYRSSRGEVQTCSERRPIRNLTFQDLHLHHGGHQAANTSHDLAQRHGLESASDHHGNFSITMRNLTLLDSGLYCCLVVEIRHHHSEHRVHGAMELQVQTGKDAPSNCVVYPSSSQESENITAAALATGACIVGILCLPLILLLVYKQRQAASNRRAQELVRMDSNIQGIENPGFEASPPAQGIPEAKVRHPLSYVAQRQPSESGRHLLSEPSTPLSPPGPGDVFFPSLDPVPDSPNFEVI
Description: (§1) Example 5 Mouse Anti-VISTA Monoclonal Antibodies Bound to Human and Monkey VISTA Expressed on HEK293A Cells To further determine whether anti-VISTA antibodies bound to human, monkey or mouse VISTA expressed on HEK293A cells, a cell-based binding assay by FACS was performed using the HEK293A cells stably overexpressing human, monkey or mouse VISTA as generated in Example 1, respectively. Briefly, 10^5 HEK293A cells were seeded into each well of the 96-well plates and serially diluted anti-VISTA antibodies were added to the plates. After incubated at 4° C. for 1 hour, plates were washed 3 times with PBST. Then, an APC coupled Goat Anti-Mouse IgG (BioLegend, US, Cat #:405308) diluted 500× was added to the plates. After incubation at 4° C. for 1 hour, the plates were washed with PBS for 3 times and then cell fluorescence was monitored using a FACS machine (BD).

[2] = target: T2, human VISTA (ECD)-his (Sino Biological, Cat #:13482-H08H) (human, UniProt Q9H7M9 33-194); assay: direct ELISA, coated hVISTA(ECD)-his
T2 construct: extracellular domain; Bought protein; also called hVISTA(ECD)-his; recombinant human VISTA(ECD)-his; not shown: his tag
T2 sequence (looked up): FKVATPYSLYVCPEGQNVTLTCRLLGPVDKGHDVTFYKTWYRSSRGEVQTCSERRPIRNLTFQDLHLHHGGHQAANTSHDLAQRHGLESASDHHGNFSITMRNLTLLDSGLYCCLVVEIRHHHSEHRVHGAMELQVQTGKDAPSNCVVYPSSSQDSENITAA
Description: ELISA plates were coated with 500 ng/ml human VISTA (ECD)-his (Sino Biological, CN, Cat #:13482-H08H) at 4° C. overnight. The wells were blocked with 200 μl of blocking buffer (PBS containing 1% BSA, 1% goat serum, and 0.05% Tween 20) for 2 hours at room temperature, and then 100 μl of serially diluted anti-VISTA antibodies (starting from 40000 ng/ml) were added to each well and incubated for 1 hour at RT. Plates were washed for 3 times with PBST (PBS+0.05% Tween 20), added with Goat-anti-mouse IgG-HRP (Simga, US, Cat #:A9309-1 ml) diluted 5000×, and incubated for 1 hour at RT. Plates were developed with freshly prepared Ultra-TMB (BD, US, Cat #:555214) for 5 minutes at RT. Absorbance was read on a SpectraMax® i3× (Molecular Devies, US) at 450 nm.

[3] = target: T1, human VISTA expressed on HEK293A cells; assay: FACS blocking assay on HEK293A/human VISTA cells; competitor 200 µg/ml VSIG3-hFc
Description: A cell-based blocking assay by FACS was performed using the HEK293A cells stably overexpressing human VISTA as generated in Example 1. Briefly, 10^5 HEK293A/human VISTA cells were seeded into each well of the 96-well plates and serially diluted anti-VISTA antibodies were added to the plates. After incubated at 4° C. for 1 hour, plates were washed 3 times with PBST. Then 200 μg/ml VSIG3-hFc fusion proteins were added into the plate. After incubation at 4° C. for 1 hour, the plates were washed with PBS for 3 times and then an PE coupled Goat Anti-human IgG (Thermofisher, USA, Cat # PAI-86078) diluted 500× was added to the plates. After incubation at 4° C. for 1 hour, the plates were washed with PBS for 3 times and then cell fluorescence was monitored using a FACS machine (BD).

[4] = target: T3, monkey VISTA expressed on HEK293A cells (monkey (cynomolgus)); assay: FACS on HEK-293A/cynoVISTA cells
T3 construct: also called HEK293A/cynoVISTA; HEK293A/monkey VISTA
T3 chain: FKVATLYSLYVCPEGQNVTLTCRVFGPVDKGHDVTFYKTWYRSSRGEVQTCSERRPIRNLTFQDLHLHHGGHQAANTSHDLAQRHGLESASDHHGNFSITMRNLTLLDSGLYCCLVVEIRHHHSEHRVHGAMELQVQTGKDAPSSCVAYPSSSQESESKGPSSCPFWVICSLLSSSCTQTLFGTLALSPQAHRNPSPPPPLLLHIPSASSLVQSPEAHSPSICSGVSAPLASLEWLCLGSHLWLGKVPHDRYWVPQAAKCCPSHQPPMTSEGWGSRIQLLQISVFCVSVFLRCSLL
Description: as §1

[5] = target: T4, monkey VISTA (ECD)-his (Sino Biological, Cat #: 90801-K08H) (cynomolgus monkey); assay: direct ELISA, coated cynoVISTA(ECD)-his
T4 construct: extracellular domain; Bought protein; also called cynoVISTA(ECD)-his; cynomolgus VISTA (ECD)-his
Description: (§2) Species-cross-reactivity of the 28 VISTA mAbs to monkey or mouse VISTA was further assessed by direct ELISA. Briefly, 500 ng/ml monkey VISTA (ECD)-his (Sino Biological, CN, Cat #: 90801-K08H) or mouse VISTA-his (Sino Biological, CN, Cat #:511550-M08H) was coated on 96-well ELISA plates followed by incubation with 100 μl of serially diluted anti-VISTA antibodies (starting from 40000 ng/ml). Goat anti-mouse IgG conjugated with HRP (Sigma, US, Cat #:A9309-1 ml) was used then. Anti-VISTA antibody JNJ-VSTB174 (referred to as JNJ) (prepared using the amino acid sequences disclosed in WO 2015/097536 A2 with human IgG1/kappa constant regions) was used as the reference.

[6] = target: T5, mouse VISTA-his (Sino Biological, Cat #:511550-M08H) (mouse, UniProt Q9D659 33-191); assay: direct ELISA, coated mouse VISTA-his
T5 construct: extracellular domain; Bought protein; also called muVISTA-his; mouse VISTA (ECD)-his; not shown: his tag
T5 sequence (looked up): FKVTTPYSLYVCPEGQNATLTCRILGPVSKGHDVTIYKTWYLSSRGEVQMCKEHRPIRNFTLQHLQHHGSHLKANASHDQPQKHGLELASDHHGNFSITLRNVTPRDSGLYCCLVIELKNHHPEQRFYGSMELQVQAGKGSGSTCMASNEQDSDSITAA
Description: as §2

[7] = target: T6, mouse VISTA expressed on HEK293A cells (mouse, UniProt Q9D659 33-308); assay: FACS on HEK293A/mouse VISTA cells
T6 construct: also called HEK293A/mouseVISTA; HEK293A/mouse VISTA
T6 sequence: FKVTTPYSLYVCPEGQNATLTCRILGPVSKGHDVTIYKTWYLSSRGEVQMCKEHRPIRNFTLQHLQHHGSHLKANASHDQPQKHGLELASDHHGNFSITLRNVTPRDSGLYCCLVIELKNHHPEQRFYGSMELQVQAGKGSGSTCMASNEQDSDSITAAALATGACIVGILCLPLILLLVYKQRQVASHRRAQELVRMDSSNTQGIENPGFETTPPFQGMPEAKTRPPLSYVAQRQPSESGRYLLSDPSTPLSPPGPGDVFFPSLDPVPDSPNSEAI
Description: as §1

B1: mouse 161E5 anti-VISTA antibody (antibody, V domains shown)
VH: QVQLKQSGAELVRPGASVKLSCKASGYSFTDYYINWVKQRPGQGLEWIARIFPGSGNAYYNEKFKDKATLTVEKSSSAAYMQLSSLTSEDSAVYFCARDDSFYGYWYFDVWGTGTTVTVSS
VL: NIMMTQSPSSLAVSAGEKVTMSCKSSQSVLYSSNQKNYLAWYQQKPGQSPKLLIYWASTRESGVPDRFTGSGSGTDFTLTISSVQAEDLAVYYCHQYLSSYTFGGGTKLEIK
notes: also called mouse anti-VISTA antibodies from clone 161E5; murine antibody 161E5
- EC50 [1]: 0.6 nM
- EC50 [2]: 0.32 nM
- EC50 [3]: 19 nM
- EC50 [4]: 1.2 nM
- EC50 [5]: 0.45 nM
- binding result [6]: no binding (tested: starting from 40000 ng/ml)
- binding result [7]: no binding

Reference: patent US10577424 (BEIJING MABWORKS BIOTECH, dated 2020)
